Assay results as given in paper PMC7272049 (PLoS ONE, 2020).

B1: mCD28 hIgG1 (Fc fusion, mouse, UniProt P31041 20-150, looked up)
chain: NKILVKQSPLLVVDSNEVSLSCRYSYNLLAKEFRASLYKGVNSDVEVCVGNGNFTYQPQFRSNAEFNCDGDFDNETVTFRLWNLHVNHTDIYFCKIEFMYPPPYLDNERSNGTIIHIKEKHLCHTQSSPKL
notes: mouse CD28; also called soluble mCD28 hIgG1
B2: mCD28 mIgG2a (Fc fusion, mouse, UniProt P31041 20-150, looked up)
chain: NKILVKQSPLLVVDSNEVSLSCRYSYNLLAKEFRASLYKGVNSDVEVCVGNGNFTYQPQFRSNAEFNCDGDFDNETVTFRLWNLHVNHTDIYFCKIEFMYPPPYLDNERSNGTIIHIKEKHLCHTQSSPKL
notes: mouse CD28
B3: mB7-1 mIgG2a (Fc fusion, mouse, UniProt Q00609 38-246, looked up)
chain: VDEQLSKSVKDKVLLPCRYNSPHEDESEDRIYWQKHDKVVLSVIAGKLKVWPEYKNRTLYDNTTYSLIILGLVLSDRGTYSCVVQKKERGTYEVKHLALVKLSIKADFSTPNITESGNPSADTKRITCFASGGFPKPRFSWLENGRELPGINTTISQDPESELYTISSQLDFNTTRNHTIKCLIKYGDAHVSEDFTWEKPPEDPPDSKN
notes: mouse B7-1 (CD80); also called mB7-1 Ig-fusion; B7-1 Fc; source: small-scale purified recombinant protein

Key:
[1] = target: B3; assay: bead-based flow cytometry competition; protein A beads saturated with mB7-1 mIgG2a; 20 nM mPD-L1 hIgG1 or mCD28 hIgG1 with increasing mIgG2a-fused competitor; anti-human Alexa 488; settings: both partners purified
[2] = target: T1, mPD-L1 S142A mCherry (mouse, UniProt Q9EP73 19-290, S142A); assay: flow cytometry on cells; HEK 293 cells expressing PD-L1 mCherry (WT or mutant) queried with protein A microbeads saturated with a 4:1 mixture of PD-1 or B7-1 Fc-fusion and FITC-Fc; no wash; normalised to wild type; settings: one partner purified
T1 construct: mouse PD-L1; source: HEK 293, transfected, on cells; not shown: mCherry, C-terminal, kept
T1 sequence (Q9EP73 19-290 S142A): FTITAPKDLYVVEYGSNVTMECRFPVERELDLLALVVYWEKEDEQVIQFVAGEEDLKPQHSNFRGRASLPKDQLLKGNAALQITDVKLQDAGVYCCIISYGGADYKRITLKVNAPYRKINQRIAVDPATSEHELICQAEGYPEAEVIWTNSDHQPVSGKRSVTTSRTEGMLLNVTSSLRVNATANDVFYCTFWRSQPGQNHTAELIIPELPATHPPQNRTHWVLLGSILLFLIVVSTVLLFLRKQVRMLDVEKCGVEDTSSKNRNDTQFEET

[3] = target: T2, mPD-L1 E163A mCherry (mouse, UniProt Q9EP73 19-290, E163A); assay: as above; settings: one partner purified
T2 construct: mouse PD-L1; source: HEK 293, transfected, on cells; not shown: mCherry, C-terminal, kept
T2 sequence (Q9EP73 19-290 E163A): as the sequence (Q9EP73 19-290 S142A) above, with A124S, E145A counted along it

[4] = target: T3, mPD-L1 E163R mCherry (mouse, UniProt Q9EP73 19-290, E163R); assay: as above; settings: one partner purified
T3 construct: mouse PD-L1; source: HEK 293, transfected, on cells; not shown: mCherry, C-terminal, kept
T3 sequence (Q9EP73 19-290 E163R): as the sequence (Q9EP73 19-290 S142A) above, with A124S, E145R counted along it

[5] = target: T4, mPD-L1 M188A mCherry (mouse, UniProt Q9EP73 19-290, M188A); assay: as above; settings: one partner purified
T4 construct: mouse PD-L1; source: HEK 293, transfected, on cells; not shown: mCherry, C-terminal, kept
T4 sequence (Q9EP73 19-290 M188A): as the sequence (Q9EP73 19-290 S142A) above, with A124S, M170A counted along it

[6] = target: T5, mPD-L1 Q214A mCherry (mouse, UniProt Q9EP73 19-290, Q214A); assay: as above; settings: one partner purified
T5 construct: mouse PD-L1; source: HEK 293, transfected, on cells; not shown: mCherry, C-terminal, kept
T5 sequence (Q9EP73 19-290 Q214A): as the sequence (Q9EP73 19-290 S142A) above, with A124S, Q196A counted along it

Row | Binder | binding result [1] | percent of wild-type binding [2] | percent of wild-type binding [3] | percent of wild-type binding [4] | percent of wild-type binding [5] | percent of wild-type binding [6]
1 | B1 | binds | – | – | – | – | –
2 | B2 | binds | – | – | – | – | –
3 | B3 | – | ~50% | ~50% | ~50% | ~50% | ~50%
